The test system of the data set is MlyI restriction endonuclease (Micrococcus lylae). Description: cleavage_in_vitro. The following applies: recombinant MlyI yield approximately 50,000 units per gram of cells; assay substrate not stated.

The source of these data is patent publication US6395531.

As to “plasmid DNA with MlyI sites (sequence not printed)”, the activity (units/g cells) came out at 50000.
